# Measurements published in article PMC3350866 (Oncogene, 2006).
# B1: GST-E7 (HPV-16 E7) (natural protein, UniProt P03129 1-98, looked up)
# chain: MHGDTPTLHEYMLDLQPETTDLYCYEQLNDSSEEEDEIDGPAGQAEPDRAHYNIVTFCCKCDSTLRLCVQSTHVDIRTLEDLLMGTLGIVCPICSQKP
# Biological target: baculovirus-expressed human Dnmt1 (human, UniProt P26358 1-1616)
# Assay: pull-down
# Chain of baculovirus-expressed human Dnmt1 (P26358 whole entry): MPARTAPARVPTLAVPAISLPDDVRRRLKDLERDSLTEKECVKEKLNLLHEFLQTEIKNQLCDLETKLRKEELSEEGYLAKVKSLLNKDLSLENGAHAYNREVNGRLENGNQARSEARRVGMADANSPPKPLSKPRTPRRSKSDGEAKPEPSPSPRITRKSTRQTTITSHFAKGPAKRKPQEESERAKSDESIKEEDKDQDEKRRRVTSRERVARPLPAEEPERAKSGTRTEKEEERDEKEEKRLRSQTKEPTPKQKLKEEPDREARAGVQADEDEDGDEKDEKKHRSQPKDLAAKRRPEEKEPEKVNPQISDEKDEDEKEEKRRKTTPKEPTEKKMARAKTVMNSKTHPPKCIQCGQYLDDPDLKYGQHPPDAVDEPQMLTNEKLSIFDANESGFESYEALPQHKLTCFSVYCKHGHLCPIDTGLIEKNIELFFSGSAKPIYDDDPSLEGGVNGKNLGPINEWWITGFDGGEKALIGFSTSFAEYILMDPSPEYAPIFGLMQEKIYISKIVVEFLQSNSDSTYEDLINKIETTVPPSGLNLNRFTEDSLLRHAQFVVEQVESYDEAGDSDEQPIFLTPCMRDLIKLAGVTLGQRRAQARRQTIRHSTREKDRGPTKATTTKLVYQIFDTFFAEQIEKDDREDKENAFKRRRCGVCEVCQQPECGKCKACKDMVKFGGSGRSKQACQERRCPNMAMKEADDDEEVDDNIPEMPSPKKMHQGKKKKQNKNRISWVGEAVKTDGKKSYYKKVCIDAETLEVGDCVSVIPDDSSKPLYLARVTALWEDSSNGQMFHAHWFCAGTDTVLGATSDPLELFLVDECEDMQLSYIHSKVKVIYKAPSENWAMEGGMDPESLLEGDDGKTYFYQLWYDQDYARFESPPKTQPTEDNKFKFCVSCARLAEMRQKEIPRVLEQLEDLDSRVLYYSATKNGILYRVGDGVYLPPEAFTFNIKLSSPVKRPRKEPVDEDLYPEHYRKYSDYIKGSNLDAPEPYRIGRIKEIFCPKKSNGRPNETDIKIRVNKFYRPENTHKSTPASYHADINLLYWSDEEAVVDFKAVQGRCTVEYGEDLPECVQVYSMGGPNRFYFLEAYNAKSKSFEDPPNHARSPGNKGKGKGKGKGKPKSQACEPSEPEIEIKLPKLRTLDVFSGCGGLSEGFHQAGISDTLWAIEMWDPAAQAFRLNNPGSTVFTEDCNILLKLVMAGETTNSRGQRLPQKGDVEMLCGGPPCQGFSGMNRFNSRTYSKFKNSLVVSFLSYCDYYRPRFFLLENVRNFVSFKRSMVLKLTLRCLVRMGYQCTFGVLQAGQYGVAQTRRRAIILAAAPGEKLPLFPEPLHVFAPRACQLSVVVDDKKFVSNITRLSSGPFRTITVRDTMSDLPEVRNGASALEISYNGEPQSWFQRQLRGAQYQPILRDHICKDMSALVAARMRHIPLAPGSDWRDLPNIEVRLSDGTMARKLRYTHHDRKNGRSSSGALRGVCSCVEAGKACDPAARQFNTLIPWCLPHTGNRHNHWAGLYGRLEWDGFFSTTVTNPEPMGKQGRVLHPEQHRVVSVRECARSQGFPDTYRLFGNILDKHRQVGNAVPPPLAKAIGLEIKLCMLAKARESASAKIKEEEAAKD
binder,measurement,value
B1,binding result,binds
